Results: patent US20130040894A1, “INHIBITION OR ACTIVATION OF SERINE/THREONINE ULK3 KINASE ACTIVITY” (TALLINN UNIVERSITY OF TECHNOLOGY, priority 2009, published 2013)

T1: His-tagged GLI1 fragment, amino acids 1-433
T1 chain: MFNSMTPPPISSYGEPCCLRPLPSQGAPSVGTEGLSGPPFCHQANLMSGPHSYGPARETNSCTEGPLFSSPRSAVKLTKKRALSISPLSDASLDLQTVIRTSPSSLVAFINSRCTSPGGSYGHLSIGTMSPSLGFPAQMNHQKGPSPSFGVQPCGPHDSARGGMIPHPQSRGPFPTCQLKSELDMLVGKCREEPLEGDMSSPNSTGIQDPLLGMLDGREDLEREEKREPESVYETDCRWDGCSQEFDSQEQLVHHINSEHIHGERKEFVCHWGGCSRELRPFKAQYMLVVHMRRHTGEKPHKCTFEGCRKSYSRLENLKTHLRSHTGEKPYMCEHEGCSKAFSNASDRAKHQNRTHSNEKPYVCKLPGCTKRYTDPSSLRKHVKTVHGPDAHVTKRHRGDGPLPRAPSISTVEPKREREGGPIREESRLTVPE

T2: His-tagged GLI1 fragment, amino acids 426-754
T2 chain: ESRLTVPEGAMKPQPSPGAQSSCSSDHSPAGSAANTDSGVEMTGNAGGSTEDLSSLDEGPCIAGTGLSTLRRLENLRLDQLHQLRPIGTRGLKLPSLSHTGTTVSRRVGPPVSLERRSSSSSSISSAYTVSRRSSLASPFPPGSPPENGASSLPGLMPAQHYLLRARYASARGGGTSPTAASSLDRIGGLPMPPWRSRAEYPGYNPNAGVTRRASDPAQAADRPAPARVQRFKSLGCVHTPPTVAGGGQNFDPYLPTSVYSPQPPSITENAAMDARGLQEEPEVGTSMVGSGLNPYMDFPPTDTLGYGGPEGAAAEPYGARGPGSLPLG


Legend:
[1] = target: T1, His-tagged GLI1 fragment, amino acids …
[2] = target: T2, His-tagged GLI1 fragment, amino acids …
GLI1 = test: In vitro kinase assay, phosphorylation of GLI1; format: biochemical, human
Protocol: Three overlapping human GLI1 domains corresponding to amino acids 1-433, 426-754 and 726-1106 were cloned into pET-15b vector (Novagen) between NdeI and BamHI sites. GLI1 amino acid sequence is provided as SEQ ID NO: 2). The fragments were expressed in BL21(DE3)pLys E. coli strain overnight at 21° C. using 0.1 mM IPTG and purified using Ni-CAM™ HC resin (Sigma-Aldrich) according to the manufacturer's recommendations. The proteins were eluted by PBS and verified by Western Blot (WB).
(§1) HEK293 cells were transfected with 13.5 μg of FLAG-tagged constructs expressed GLI1, GLI2, GLI3, ULK3, ULK3(K44R), ULK3(K139R) or FLAG-CMV-4 empty vector on 10 cm plates. The cells were lysed with 0.5 ml of Lysis Buffer (50 mM Tris HCl, pH 7.4, 150 mM NaCl, 1 mM EDTA, 1% Triton X-100) containing protease inhibitor cocktail (PIC) (Roche Applied Science). The lysates were centrifuged for 15 min at 4° C. and 15000 g, and the supernatants were used for immunoprecipitation (IP). IP was performed using anti-FLAG-M2 affinity gel (Sigma-Aldrich) in batch format according to the manufacture's instructions. Immune complexes were washed three times with 500 μl of Kinase Buffer (KB) (50 mM HEPES, pH 7.4, 20 mM MgCl2, 25 μM ATP) and resuspended in 12.5 μl of KB. One fifth of the immuno-complexes was subjected to WB and the rest was used for the kinase assay.
(§2) Kinase reactions were carried out in KB in a total volume of 20 μl of in the presence of 1 μCi of [γ-^32P]ATP per reaction. We used 1 μl of the immunoprecipitated ULK3, ULK3(K44R) or ULK3(K139R) mixed with 5 μl of the GLI-M2 immunocomplexes or 5 μl of bacterially expressed and purified His-GLI1 fragments. Kinase reactions were held at 30° C. for 30 min and terminated by adding of 5 μl of 4× Laemmli Sample Buffer. Proteins were resolved by SDS-PAGE. The gel was dried at 80° C. for 2 h, and autoradiography was performed using Bio-Rad Personal Molecular Imager FX.
We also assayed whether ULK3 is able to phosphorylate GLI proteins. FLAG-tagged GLI1, GLI2 and GLI3 proteins were expressed and immunoprecipitated from HEK293 cells and used as substrates for immunopurified ULK3 in the in vitro kinase assay. ULK3 was able to phosphorylate GLI proteins but with different efficiency (FIG. 3B). […] To support these findings and identify the regions in GLI1 protein that are phosphorylated by ULK3, we used bacterially expressed His-tagged fragments of GLI1 as substrate for ULK3 kinase. Two of them—GLI1(1-433) and GLI1(726-1106)—were phosphorylated by ULK3.

GLI3 = test: In vitro kinase assay, phosphorylation of GLI3; format: biochemical; details: FLAG-tagged GLI3 immunoprecipitated from HEK293 cells
Protocol: as §1
as §2, with “The gel was dried at 80° C. for 2 h, and autoradiography was performed using Bio-Rad Personal Molecular Imager FX.” left out

[3] = bacterially expressed His-tagged fragment

| phosphorylation of GLI1(1-433) fragment (GLI1; [3]) | phosphorylation of GLI1(726-1106) fragment (GLI1; [3]) | phosphorylation of central part of GLI1 (amino acids 426-754) (GLI1; [3]) | Molecule | in vitro kinase assay, phosphorylation of a His-tagged GLI1 fragment [1] | in vitro kinase assay, phosphorylation of a His-tagged GLI1 fragment [2] | phosphorylation of GLI1 (GLI1; FLAG-tagged GLI1 immunoprecipitated from HEK293 cells) | phosphorylation of GLI3 (GLI3) |
| --- | --- | --- | --- | --- | --- | --- | --- |
|  |  |  | FLAG-tagged wild-type ULK3 (human serine/threonine kinase ULK3) (protein) MAGPGWGPPRLDGFILTERLGSGTYATVYKAYAKKDTREVVAIKCVAKKSLNKASVENLLTEIEILKGIRHPHIVQLKDFQWDSDNIYLIMEFCAGGDLSRFIHTRRILPEKVARVFMQQLASALQFLHERNISHLDLKPQNILLSSLEKPHLKLADFGFAQHMSPWDEKHVLRGSPLYMAPEMVCQRQYDARVDLWSMGVILYEALFGQPPFASRSFSELEEKIRSNRVIELPLRPLLSRDCRDLLQRLLERDPSRRISFQDFFAHPWVDLEHMPSGESLGRATALVVQAVKKDQEGDSAAALSLYCKALDFFVPALHYEVDAQRKEAIKAKVGQYVSRAEELKAIVSSSNQALLRQGTSARDLLREMARDKPRLLAALEVASAAMAKEEAAGGEQDALDLYQHSLGELLLLLAAEPPGRRRELLHTEVQNLMARAEYLKEQVKMRESRWEADTLDKEGLSESVRSSCTLQ | Two of them-GLI1(1-433) and GLI1(726-1106)-were phosphorylated by ULK3 | Central part of GLI1 (amino acids 426-754) was not phosphorylated by ULK3 |  |  |
| phosphorylated | phosphorylated | not phosphorylated | ULK3: human serine/threonine kinase, 472 amino acids (SEQ ID NO: 1), overexpressed from cloned cDNA or immunopurified FLAG-tagged (protein, listed as Homo sapiens, PEPTIDE (1)..(472) ULK3) MAGPGWGPPRLDGFILTERLGSGTYATVYKAYAKKDTREVVAIKCVAKKSLNKASVENLLTEIEILKGIRHPHIVQLKDFQWDSDNIYLIMEFCAGGDLSRFIHTRRILPEKVARVFMQQLASALQFLHERNISHLDLKPQNILLSSLEKPHLKLADFGFAQHMSPWDEKHVLRGSPLYMAPEMVCQRQYDARVDLWSMGVILYEALFGQPPFASRSFSELEEKIRSNRVIELPLRPLLSRDCRDLLQRLLERDPSRRISFQDFFAHPWVDLEHMPSGESLGRATALVVQAVKKDQEGDSAAALSLYCKALDFFVPALHYEVDAQRKEAIKAKVGQYVSRAEELKAIVSSSNQALLRQGTSARDLLREMARDKPRLLAALEVASAAMAKEEAAGGEQDALDLYQHSLGELLLLLAAEPPGRRRELLHTEVQNLMARAEYLKEQVKMRESRWEADTLDKEGLSESVRSSCTLQ |  |  | significantly lower intensity as compared to GLI2 | significantly lower intensity as compared to GLI2 |
